# Data published in the MegaScale stability set (Tsuboyama et al. 2023).
# B1: r16_88_TrROS_Hall (parent)
# chain: EVIELKIKFKTPEQREKLKEIAKKLNAEVVEEKDGEVIIRFKTPEQAERALKEAEKLGAEVEL
# Variants of: B1
# Experiment: folding stability dG (cDNA display proteolysis); higher = more stable
# Conditions: PBS, room temperature
row,Variant,folding stability dG [kcal/mol]
1,EVIELKIKFKTPEQREKLKEIAKKLNAEVVLEKDGEVIIRFKTPEQAERALKEAEKLGAEVEL [E31L],4.62
2,EVIELKIKFKTPEQREKLKEIAKKLNAEVVYEKDGEVIIRFKTPEQAERALKEAEKLGAEVEL [E31Y],4.46
3,EVIELKIKFKTPEQREKLKEIAKKLNAEVVEEKDGEVIIRFKTPEQAERALKEAEKLGARVEL [E60R],4.15
4,EVIELKIKFKTPEQREKLKEIAKKLNAEVVEEKDGEVIIRFKTPEIAERALKEAEKLGAEVEL [Q46I],4.15
5,EVIELKIKFKTPEQREKLKNIAKKLNAEVVEEKDGEVIIRFKTPEQAERALKEAEKLGAEVEL [E20N],4.25
6,EVIELKIKFKTPEQRIKLKEIAKKLNAEVVEEKDGEVIIRFKTPEQAERALKEAEKLGAEVEL [E16I],4.38
7,EVIELKIKFKTPEQREKLKEIAKKLNAEVLEEKDGEVIIRFKTPEQAERALKEAEKLGAEVEL [V30L],4.44
8,EVIELKIKFKTPEQREKLKEIAKKLNAEVFEEKDGEVIIRFKTPEQAERALKEAEKLGAEVEL [V30F],4.61
9,EVIELKIKFKTPEQREKLKEIAKKLNAEVIEEKDGEVIIRFKTPEQAERALKEAEKLGAEVEL [V30I],4.46
10,EVIELKIKFKTPEQREKLKEIAKKLNAEVVEEKDGEVIIRFKTPEQAERALKEQEKLGAEVEL [A54Q],3.6
11,EVIELKIKFKTPEQREKLKEIAKKLNAEVVEEKDGEVIIRFKTPEQAERALKESEKLGAEVEL [A54S],4.45
12,EVIELKIKFKTPEQREKLKEIAKKLNAEVVEEKDGEVIIRFKTPEQAERALKEGEKLGAEVEL [A54G],4.09
13,EVIELKIKFKTPEQREKLKEIAKKLNAEVVEELDGEVIIRFKTPEQAERALKEAEKLGAEVEL [K33L],4.59
14,EVIELKIKFKTPEQREKLKEIAKKLNAEVVEENDGEVIIRFKTPEQAERALKEAEKLGAEVEL [K33N],4.32
15,EVIELKIKFKTPEQREKLKEIAKKLNAEVVEEKDGEVIARFKTPEQAERALKEAEKLGAEVEL [I39A],4.41
16,EVIELKIKFKTPEQREKLKEIAKKLNAEVVEEKDGEVICRFKTPEQAERALKEAEKLGAEVEL [I39C],4.35
17,EVIELKIKFKTPEQREKLKEIAMKLNAEVVEEKDGEVIIRFKTPEQAERALKEAEKLGAEVEL [K23M],4.54
18,EVIELKIKFKTPEQREKLKEIAKKLNAEVVEEKDGEVMIRFKTPEQAERALKEAEKLGAEVEL [I38M],4.51
19,EVIELKIKFKTPEQREKLKEIAKKLNAEVVEEKDGEVIICFKTPEQAERALKEAEKLGAEVEL [R40C],4.37
20,EVIELKIKFKTPEQREKLKEIAKKLNAEVVEEKDGEVIIGFKTPEQAERALKEAEKLGAEVEL [R40G],4.15
21,EVIELKIKFKTPEQREKLKEIAKKLIAEVVEEKDGEVIIRFKTPEQAERALKEAEKLGAEVEL [N26I],4.19

row,Variant,folding stability dG [kcal/mol]
1,EVIELKIKFKTPEQREKLKEIAKKLSAEVVEEKDGEVIIRFKTPEQAERALKEAEKLGAEVEL [N26S],4.45
2,EVINLKIKFKTPEQREKLKEIAKKLNAEVVEEKDGEVIIRFKTPEQAERALKEAEKLGAEVEL [E4N],4.35
3,EVIELKIKFKTPEQREKLKEIAKKLNAEVVEEKIGEVIIRFKTPEQAERALKEAEKLGAEVEL [D34I],4.5
4,EVIELKIKFKTPEQREKLNEIAKKLNAEVVEEKDGEVIIRFKTPEQAERALKEAEKLGAEVEL [K19N],4.11
5,EVIELKIKFKTPEQREKLKEIAKKLNAEVVEEKDGEVIIRFKTPEQAEPALKEAEKLGAEVEL [R49P],4.17
6,EVIELKIKFKTPEQREKLKEIAKKLNAEVVEEKDGEVIIRFKTPEQAEGALKEAEKLGAEVEL [R49G],4.37
7,EVIELKIKFKTPEQREKLKEIAKKLNAEVVEEKDGEVIIRFKTPEQAELALKEAEKLGAEVEL [R49L],4.53
8,EVIELKIKFKTPEMREKLKEIAKKLNAEVVEEKDGEVIIRFKTPEQAERALKEAEKLGAEVEL [Q14M],4.43
9,EVIELKIKFKTPETREKLKEIAKKLNAEVVEEKDGEVIIRFKTPEQAERALKEAEKLGAEVEL [Q14T],4.3
10,EVIELKIKFITPEQREKLKEIAKKLNAEVVEEKDGEVIIRFKTPEQAERALKEAEKLGAEVEL [K10I],4.09
11,EVIELKIKFKTPEQREKLKEIAKKLNAEVVEEKDGEFIIRFKTPEQAERALKEAEKLGAEVEL [V37F],4.55
12,EVIELKIKFKTPEQREKLKEIAKKLNAEVVEEKDGEVIIRFKTPEQAERALKEAEKLHAEVEL [G58H],4.27
13,EVIELKIKFKTPEQREKLKEIAKKLNAEVVEEKDGEVIIRFKTPEQAERALKEAEKLQAEVEL [G58Q],4.25
14,EVIELKIKFKTPYQREKLKEIAKKLNAEVVEEKDGEVIIRFKTPEQAERALKEAEKLGAEVEL [E13Y],4.76
15,EVIELKIKFKTPEQREKLKEIAKKLNAEVVEEKDGEVIIRFKTPEQAERALKEAEKLGAEVRL [E62R],3.94
16,EVIELKIKFKTPEQREKLKEIAKKLNAEVVEEKDGEVIIRFKTPEQAERALKEAEKLGAEVHL [E62H],4.37
17,EVIELKIKFKTPEQREKLKEIAKKLNAEVVEEKDGVVIIRFKTPEQAERALKEAEKLGAEVEL [E36V],4.36
18,EVIELKIKFKTPEQREKLKEIAKKLNAEVVEEKDGEVIIRFWTPEQAERALKEAEKLGAEVEL [K42W],4.26
19,EVIELKIKFKTPEQREKYKEIAKKLNAEVVEEKDGEVIIRFKTPEQAERALKEAEKLGAEVEL [L18Y],4.53
20,EVIELKIKFKTPEQREKDKEIAKKLNAEVVEEKDGEVIIRFKTPEQAERALKEAEKLGAEVEL [L18D],1.24
21,EVIELKIKFKTPEQREKRKEIAKKLNAEVVEEKDGEVIIRFKTPEQAERALKEAEKLGAEVEL [L18R],2.12
